{"source": "IntAct's records for PubMed 25107275", "biological_target": "snx9_human SNX9 (UniProt Q9Y5X1)", "sequence (Q9Y5X1 whole entry)": "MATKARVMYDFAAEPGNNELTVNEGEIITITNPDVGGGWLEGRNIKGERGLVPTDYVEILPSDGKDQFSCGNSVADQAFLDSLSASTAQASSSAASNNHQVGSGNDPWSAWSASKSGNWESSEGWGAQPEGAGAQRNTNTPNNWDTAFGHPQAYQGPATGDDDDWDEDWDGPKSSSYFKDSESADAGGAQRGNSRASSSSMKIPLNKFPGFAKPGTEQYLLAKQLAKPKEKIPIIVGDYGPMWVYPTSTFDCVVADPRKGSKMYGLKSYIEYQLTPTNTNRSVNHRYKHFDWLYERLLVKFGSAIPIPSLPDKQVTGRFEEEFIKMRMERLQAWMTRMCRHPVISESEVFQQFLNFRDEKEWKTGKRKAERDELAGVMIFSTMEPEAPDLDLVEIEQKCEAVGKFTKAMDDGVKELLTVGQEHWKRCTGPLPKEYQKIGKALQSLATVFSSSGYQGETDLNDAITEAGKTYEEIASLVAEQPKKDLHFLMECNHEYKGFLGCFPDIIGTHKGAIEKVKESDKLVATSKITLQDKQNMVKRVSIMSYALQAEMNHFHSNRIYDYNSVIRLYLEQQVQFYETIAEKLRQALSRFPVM", "data": [{"substance": "Inositol polyphosphate 5-phosphatase OCRL (Homo sapiens), Q01968 P177A;P178A;P181A", "values": [{"measurement": "effect of a mutation on the interaction", "value": "disrupting interaction"}]}]}
